Source: paper PMC10593786
Each block holds one substance with its values, some of them ahead of it.

Experiments:
[1] = molecular target: FLMyo6 (T888D.Q892E.V903D) (human) (UniProt Q9UM54)
[2] = molecular target: Jo-Myo6-In heavy chain (Streptococcus pneumoniae | human); assay: co-purification, SDS-PAGE; CaM co-expressed with Jo-Myo6-In in Sf9 cells, purified by the Flag tag of the heavy chain, read by SDS-PAGE
[3] = molecular target: full-length wild-type Myo6, small insert isoform (FLMyo6 SI (WT)) (human) (UniProt Q9UM54)

- maximal actin-activated ATPase rate of FLMyo6 (T888D.Q892E.V903D) upon GIPC1 addition (loss of gating) [1]: 2 fold
Substance: FLMyo6 (T888D.Q892E.V903D) (from UniProt Q9UM54-5 1-1253; P0DP23 1-149) (complex)

Substance: calmodulin (CaM) (from UniProt P0DP23 1-149) (natural protein)
- stoichiometry N (CaM per heavy chain) [2]: 2

- decrease in maximal actin-activated ATPase activity per Head of FLMyo6 (WT, no-insert isoform) upon addition of GIPC1, compared to monomeric MD^Ins2 (gating in a dimer) [3]: 50%
Substance: full-length wild-type Myo6, small insert isoform (FLMyo6 SI (WT)) (from UniProt Q9UM54-2 1-1262; P0DP23 1-149) (complex)
